The source of these data is article PMC7672443, “Structural basis of the XPB helicase–Bax1 nuclease complex interacting with the repair bubble DNA” (Nucleic Acids Research, 2020).

For series [1], the target named is human XPB;human p52;human p8;human XPA (human;human;human;human, UniProt P19447;Q92759;Q6ZYL4;P23025 1-782;1-462;1-71;1-273, |||). Put plainly: EMSA; stable complex; EMSA: 25 mM Tris-Cl pH 7.5, 100 mM NaCl, 5% glycerol, 1 mM DTT, room temperature 40 min; 0.8 uM forked DNA or 0.3 uM bubble DNA; 4% TBE native gel, ethidium bromide. The note with it: protein: recombinant;recombinant;recombinant;recombinant; tags: N-terminal His6 (PreScission; removed);;;N-terminal His6-SUMO (removed); copies: 1;1;1;1; fork: 22 bp duplex, 10 nt arms. For orientation: A gel shift assay detects complexes by their altered migration in electrophoresis.

The target of a further series is T1, StXPB;StBax1 (Sulfurisphaera tokodaii;Sulfurisphaera …, UniProt Q970I2;Q970I1 2-439;1-481, |).
T1 sequence 1: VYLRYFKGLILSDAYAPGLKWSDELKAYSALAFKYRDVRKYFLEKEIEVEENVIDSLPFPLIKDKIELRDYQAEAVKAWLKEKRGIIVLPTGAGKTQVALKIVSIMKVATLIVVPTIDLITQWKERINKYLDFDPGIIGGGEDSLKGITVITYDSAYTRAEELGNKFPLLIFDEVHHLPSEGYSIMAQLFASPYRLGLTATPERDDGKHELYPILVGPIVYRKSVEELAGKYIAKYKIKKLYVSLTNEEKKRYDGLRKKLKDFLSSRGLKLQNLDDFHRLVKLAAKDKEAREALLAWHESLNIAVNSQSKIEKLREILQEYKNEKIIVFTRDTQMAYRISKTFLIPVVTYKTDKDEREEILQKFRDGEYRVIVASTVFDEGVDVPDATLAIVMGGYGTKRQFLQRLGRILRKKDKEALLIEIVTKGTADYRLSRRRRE
T1 sequence 2: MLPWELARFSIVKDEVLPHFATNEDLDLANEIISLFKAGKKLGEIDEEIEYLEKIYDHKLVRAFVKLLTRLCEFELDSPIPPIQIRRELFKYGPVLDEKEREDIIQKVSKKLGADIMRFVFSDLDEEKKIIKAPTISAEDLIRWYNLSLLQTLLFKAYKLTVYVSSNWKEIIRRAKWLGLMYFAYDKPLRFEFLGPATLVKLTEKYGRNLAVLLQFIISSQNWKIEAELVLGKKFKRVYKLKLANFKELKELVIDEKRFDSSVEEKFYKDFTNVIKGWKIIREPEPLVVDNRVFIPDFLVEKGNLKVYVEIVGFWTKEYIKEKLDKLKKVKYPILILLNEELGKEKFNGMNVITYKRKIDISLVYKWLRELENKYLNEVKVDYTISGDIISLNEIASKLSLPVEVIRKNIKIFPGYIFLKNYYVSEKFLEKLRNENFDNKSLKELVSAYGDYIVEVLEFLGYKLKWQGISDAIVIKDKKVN
The series is described as follows: EMSA; EMSA: 25 mM Tris-Cl pH 7.5, 100 mM NaCl, 5% glycerol, 1 mM DTT, room temperature 40 min; 0.8 uM forked DNA or 0.3 uM bubble DNA; 4% TBE native gel, ethidium bromide. The note with it: protein: recombinant;recombinant; tags: N-terminal His8 (PreScission; removed);; copies: 1;1; fork: 22 bp duplex, 10 nt arms.

The target in series [2] is T2, StXPB;StBax1ΔC (Sulfurisphaera tokodaii;Sulfurisphaera …, UniProt Q970I2;Q970I1 2-439;2-373, |).
T2 sequence 1: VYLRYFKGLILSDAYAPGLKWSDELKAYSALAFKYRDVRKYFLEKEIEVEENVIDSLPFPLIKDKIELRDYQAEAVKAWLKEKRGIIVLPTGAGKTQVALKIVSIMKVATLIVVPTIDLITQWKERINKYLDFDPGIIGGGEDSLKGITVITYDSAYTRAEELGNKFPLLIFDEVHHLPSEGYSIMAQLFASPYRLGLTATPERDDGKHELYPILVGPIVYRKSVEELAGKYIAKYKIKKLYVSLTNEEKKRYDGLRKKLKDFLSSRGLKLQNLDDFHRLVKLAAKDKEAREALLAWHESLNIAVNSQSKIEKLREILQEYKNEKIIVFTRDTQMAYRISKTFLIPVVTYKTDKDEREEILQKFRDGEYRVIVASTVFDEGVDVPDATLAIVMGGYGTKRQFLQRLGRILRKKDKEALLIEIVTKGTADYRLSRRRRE
T2 sequence 2: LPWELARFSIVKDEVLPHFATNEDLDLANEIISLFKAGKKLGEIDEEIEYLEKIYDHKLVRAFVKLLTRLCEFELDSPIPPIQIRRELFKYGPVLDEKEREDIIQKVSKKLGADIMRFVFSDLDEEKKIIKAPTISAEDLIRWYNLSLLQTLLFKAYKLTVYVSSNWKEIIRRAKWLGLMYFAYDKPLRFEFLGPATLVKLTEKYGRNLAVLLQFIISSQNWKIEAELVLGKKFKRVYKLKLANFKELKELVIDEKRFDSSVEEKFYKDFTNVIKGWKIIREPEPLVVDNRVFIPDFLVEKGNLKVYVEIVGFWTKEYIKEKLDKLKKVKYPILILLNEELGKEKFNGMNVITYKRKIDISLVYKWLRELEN
The description is as above. The note with it: protein: recombinant;recombinant; tags: N-terminal His8 (PreScission; removed);none stated (pET15b; copurified with His8-XPB); copies: 1;1; fork: 22 bp duplex, 10 nt arms.

The next series concerns the target T3, StXPB F278A (Sulfurisphaera tokodaii, UniProt Q970I2 2-439, F278A).
T3 sequence: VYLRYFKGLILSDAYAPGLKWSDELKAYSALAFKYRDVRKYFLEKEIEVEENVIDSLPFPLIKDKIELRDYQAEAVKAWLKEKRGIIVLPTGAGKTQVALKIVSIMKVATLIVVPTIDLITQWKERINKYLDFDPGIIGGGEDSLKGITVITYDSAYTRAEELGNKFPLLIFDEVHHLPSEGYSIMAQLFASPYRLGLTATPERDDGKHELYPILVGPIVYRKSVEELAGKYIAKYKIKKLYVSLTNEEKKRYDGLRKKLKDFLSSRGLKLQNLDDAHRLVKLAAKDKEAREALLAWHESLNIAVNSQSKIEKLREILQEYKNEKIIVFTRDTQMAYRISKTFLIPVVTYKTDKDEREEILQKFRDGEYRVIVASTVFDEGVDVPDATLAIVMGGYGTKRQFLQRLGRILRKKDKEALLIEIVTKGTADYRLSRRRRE
Put plainly: EMSA; no noticeable effect versus WT; EMSA: 25 mM Tris-Cl pH 7.5, 100 mM NaCl, 5% glycerol, 1 mM DTT, room temperature 40 min; 0.8 uM forked DNA or 0.3 uM bubble DNA; 4% TBE native gel, ethidium bromide. The note with it: protein: recombinant; tags: N-terminal His8 (removed); 32 nt strands, blunt, internal 5 nt T:T mismatch bubble.

Series [3] has as its target T2, StXPB;StBax1ΔC. The series is described as follows: crystal structure 3.55 Å; 10 mM MgCl2, MES pH 5.3, MPD; ATP-free; EMSA: 25 mM Tris-Cl pH 7.5, 100 mM NaCl, 5% glycerol, 1 mM DTT, room temperature 40 min; 0.8 uM forked DNA or 0.3 uM bubble DNA; 4% TBE native gel, ethidium bromide. The note with it: protein: recombinant;recombinant; tags: N-terminal His8 (PreScission; removed);none stated (pET15b; copurified with His8-XPB); copies: 1;1; 24 bp with 6 nt unpaired region; 6 bp short arm unwound in crystal.

Chain of human XPB;human p52;human p8;human XPA (P19447 whole entry, chain 1 of 4): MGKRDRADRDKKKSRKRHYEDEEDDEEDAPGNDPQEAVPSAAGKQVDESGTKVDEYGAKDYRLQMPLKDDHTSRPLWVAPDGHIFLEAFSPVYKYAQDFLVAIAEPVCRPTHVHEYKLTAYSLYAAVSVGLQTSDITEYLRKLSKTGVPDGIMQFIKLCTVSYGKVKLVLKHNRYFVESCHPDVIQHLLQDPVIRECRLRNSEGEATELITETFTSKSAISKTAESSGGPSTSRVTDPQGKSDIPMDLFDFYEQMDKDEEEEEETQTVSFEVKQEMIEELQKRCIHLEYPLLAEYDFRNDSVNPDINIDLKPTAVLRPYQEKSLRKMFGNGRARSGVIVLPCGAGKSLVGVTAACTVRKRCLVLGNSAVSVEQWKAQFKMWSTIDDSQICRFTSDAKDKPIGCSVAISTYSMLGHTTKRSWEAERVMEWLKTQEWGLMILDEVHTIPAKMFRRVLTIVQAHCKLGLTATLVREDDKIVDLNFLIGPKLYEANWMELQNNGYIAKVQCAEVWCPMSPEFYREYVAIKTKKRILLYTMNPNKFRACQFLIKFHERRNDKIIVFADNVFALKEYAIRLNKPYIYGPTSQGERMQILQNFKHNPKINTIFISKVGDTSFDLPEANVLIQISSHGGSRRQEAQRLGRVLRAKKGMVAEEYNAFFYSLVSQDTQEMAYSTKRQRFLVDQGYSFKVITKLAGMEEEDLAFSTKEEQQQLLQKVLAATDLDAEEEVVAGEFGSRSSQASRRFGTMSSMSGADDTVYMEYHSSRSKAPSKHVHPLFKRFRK
Chain of human XPB;human p52;human p8;human XPA (Q92759 whole entry, chain 2 of 4): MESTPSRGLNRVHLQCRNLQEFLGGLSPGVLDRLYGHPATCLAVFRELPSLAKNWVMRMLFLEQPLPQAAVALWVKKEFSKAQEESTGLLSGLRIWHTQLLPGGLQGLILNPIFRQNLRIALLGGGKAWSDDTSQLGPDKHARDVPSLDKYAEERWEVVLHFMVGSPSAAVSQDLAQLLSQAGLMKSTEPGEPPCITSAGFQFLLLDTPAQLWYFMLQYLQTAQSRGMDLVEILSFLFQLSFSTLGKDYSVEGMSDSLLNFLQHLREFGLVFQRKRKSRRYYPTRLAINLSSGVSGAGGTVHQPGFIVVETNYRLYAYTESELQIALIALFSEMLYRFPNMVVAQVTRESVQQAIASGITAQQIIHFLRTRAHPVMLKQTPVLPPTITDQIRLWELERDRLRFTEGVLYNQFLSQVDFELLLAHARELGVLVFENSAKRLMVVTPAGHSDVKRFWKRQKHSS
Chain of human XPB;human p52;human p8;human XPA (Q6ZYL4 whole entry, chain 3 of 4): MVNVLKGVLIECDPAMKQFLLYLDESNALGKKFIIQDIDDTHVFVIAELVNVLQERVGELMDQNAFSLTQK
Chain of human XPB;human p52;human p8;human XPA (P23025 whole entry, chain 4 of 4): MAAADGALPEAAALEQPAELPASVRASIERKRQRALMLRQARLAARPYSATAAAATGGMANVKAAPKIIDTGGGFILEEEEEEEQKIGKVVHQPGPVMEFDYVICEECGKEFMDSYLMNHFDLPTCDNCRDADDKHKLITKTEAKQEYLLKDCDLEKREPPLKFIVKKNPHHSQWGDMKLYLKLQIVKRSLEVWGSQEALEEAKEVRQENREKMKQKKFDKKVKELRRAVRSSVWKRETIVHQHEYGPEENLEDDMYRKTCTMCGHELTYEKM

B1: forked DNA (dsDNA)
DNA 1: TAGTCACAGCTGATTGCGCTCTGCTCCATAGT
DNA 2: TGATACTTCGAGAGCGCAATCAGCTGTGACTA
In the case of B1, the binding result (in series [1]; in the series with StXPB;StBax1; with StXPB;StBax1ΔC [2]) was “binds” in each case.

B2: bubble-5 DNA (dsDNA)
DNA 1: TAGTCACAGCTGATTTTTCTCTGCTCCATAGT
DNA 2: ACTATGGAGCAGAGTTTTTTCAGCTGTGACTA
As for B2, the binding result in the series with StXPB F278A is given as “binds”.

B3: bubble-6 DNA (crystal) (dsDNA)
DNA 1: TTGACTCAACATCCTTTGCTACAA
DNA 2: ATTGTAGGTTTCCATGTTGAGTCA
Regarding B3, in the series with StXPB;StBax1ΔC [3], the binding result is “binds”.
